Experimental data reported in patent US20200392227A1 (LYVGEN BIOPHARMA, published 2020).
Numbering of substitutions follows the chain as printed. Read-outs that look alike come from different tables or passages of the source.

T1: human FcRIIA protein (MednaBio, E1033) (human, UniProt P12318 34-218, limits assumed)
T1 construct: Bought; also called FcγRIIA
T1 sequence (looked up): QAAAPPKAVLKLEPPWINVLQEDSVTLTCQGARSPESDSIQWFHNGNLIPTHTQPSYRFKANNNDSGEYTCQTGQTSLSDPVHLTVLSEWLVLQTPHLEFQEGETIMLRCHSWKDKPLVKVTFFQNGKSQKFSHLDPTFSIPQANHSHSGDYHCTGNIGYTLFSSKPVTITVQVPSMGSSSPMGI

T2: human FcRIIB/C protein (MednaBio, E1034) (human, UniProt P31994 43-217, limits assumed)
T2 construct: Bought as FcRIIB/C; also called FcγRIIB; CD32B
T2 sequence (looked up): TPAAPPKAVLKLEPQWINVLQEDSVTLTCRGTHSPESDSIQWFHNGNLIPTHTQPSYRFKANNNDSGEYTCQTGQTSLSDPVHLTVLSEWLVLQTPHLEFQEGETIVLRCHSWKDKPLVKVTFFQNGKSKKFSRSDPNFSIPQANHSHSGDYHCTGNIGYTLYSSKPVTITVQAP

T3: human FcγRIIC expressed on CHO cells (human, UniProt P31995 43-323)
T3 construct: whole, on cells
T3 sequence (looked up): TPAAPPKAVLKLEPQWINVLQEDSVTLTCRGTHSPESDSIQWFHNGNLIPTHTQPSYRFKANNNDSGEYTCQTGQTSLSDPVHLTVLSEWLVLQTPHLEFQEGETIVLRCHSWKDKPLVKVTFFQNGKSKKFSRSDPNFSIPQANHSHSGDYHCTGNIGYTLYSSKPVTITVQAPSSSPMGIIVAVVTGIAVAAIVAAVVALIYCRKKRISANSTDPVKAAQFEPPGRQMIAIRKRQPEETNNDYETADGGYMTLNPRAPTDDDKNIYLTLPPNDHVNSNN

B1: anti-CD137 IgG1 with Fc variant G1m19 (antibody)
heavy: EVQLVQSGAEVKKPGESLRISCKGSGYSFSTYWISWVRQMPGKGLEWMGKIYPGDSYTNYSPSFQGQVTISADKSISTAYLQWSSLKASDTAMYYCARGYGIFDYWGQGTLVTVSSASTKGPSVFPLAPSSKSTSGGTAALGCLVKDYFPEPVTVSWNSGALTSGVHTFPAVLQSSGLYSLSSVVTVPSSSLGTQTYICNVNHKPSNTKVDKKVEPKSCDKTHTCPPCPAPELLSVFLFPPKPKDTLMISRTPEVTCVVVDVEHEDPEVKFNWYVDGVEVHNAKTKPREEQYNSTYRVVSVLTVLHQDWLNGKEYKCKVSNKAFPAPIEKTISKAKGQPREPQVYTLPPSREEMTKNQVSLTCLVKGFYPSDIAVEWESNGQPENNYKTTPPVLDSDGSFFLYSKLTVDKSRWQQGNVFSCSVMHEALHNHYTQKSLSLSPGK
light: SYELTQPPSVSVSPGQTASITCSGDNIGDQYAHWYQQKPGQSPVLVIYQDKNRPSGIPERFSGSNSGNTATLTISGTQAMDEADYYCATYTGFGSLAVFGGGTKLTVLGQPKAAPSVTLFPPSSEELQANKATLVCLISDFYPGAVTVAWKADSSPVKAGVETTTPSKQSNNKYAASSYLSLTPEQWKSHRSYSCQVTHEGSTVEKTVAPTECS
notes: copies: 2 + 2
B2: anti-CD137 IgG4 with Fc variant G4m28 (antibody)
heavy: EVQLVQSGAEVKKPGESLRISCKGSGYSFSTYWISWVRQMPGKGLEWMGKIYPGDSYTNYSPSFQGQVTISADKSISTAYLQWSSLKASDTAMYYCARGYGIFDYWGQGTLVTVSSASTKGPSVFPLAPCSRSTSESTAALGCLVKDYFPEPVTVSWNSGALTSGVHTFPAVLQSSGLYSLSSVVTVPSSSLGTKTYTCNVDHKPSNTKVDKRVESKYGPPCPPCPAPEFLGPSVFLFPPKPKDTLMISRTPEVTCVVVDVSQEDPEVQFNWYVDGVEVHNAKTKPREEQFNSTYRVVSVLTVLHQDWLNGKEYKCKVSNKGFPSSIEKTISKAKGQPREPQVYTLPPSQEEMTKNQVSLTCLVKGFYPSDIAVEWESNGQPENNYKTTPPVLDSDGSFFLYSRLTVDKSRWQEGNVFSCSVMHEALHNHYTQKSLSLSLGK
light: B1 light
notes: copies: 2 + 2
B3: anti-CD137 IgG4 with Fc variant G4m17 (antibody)
heavy: EVQLVQSGAEVKKPGESLRISCKGSGYSFSTYWISWVRQMPGKGLEWMGKIYPGDSYTNYSPSFQGQVTISADKSISTAYLQWSSLKASDTAMYYCARGYGIFDYWGQGTLVTVSSASTKGPSVFPLAPCSRSTSESTAALGCLVKDYFPEPVTVSWNSGALTSGVHTFPAVLQSSGLYSLSSVVTVPSSSLGTKTYTCNVDHKPSNTKVDKRVESKYGPPCPPCPAPEFLSVFLFPPKPKDTLMISRTPEVTCVVVDVEQEDPEVQFNWYVDGVEVHNAKTKPREEQFNSTYRVVSVLTVLHQDWLNGKEYKCKVSNKGLPSSIEKTISKAKGQPREPQVYTLPPSQEEMTKNQVSLTCLVKGFYPSDIAVEWESNGQPENNYKTTPPVLDSDGSFFLYSRLTVDKSRWQEGNVFSCSVMHEALHNHYTQKSLSLSLGK
light: B1 light
notes: copies: 2 + 2
B4: anti-CD137 IgG4 with Fc variant G4m29 (antibody)
heavy: B2 heavy with S262E
light: B1 light
notes: copies: 2 + 2

How the values were obtained:
[1] = target: T1, human FcRIIA protein (MednaBio, E1033); experiment: BLI
Procedure, shortened: (§1)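 Binding was measured by biolayer interferometry on an Octet Red96 System, with commercial human Fc receptor proteins loaded at 20 μg/mL onto anti-penta-HIS biosensors. Sensors were dipped into an 8-point 1:3 dilution series of test IgG starting at 300 nM in PBS with 0.1% BSA and 0.02% Tween-20. Fcγ receptor assays ran at pH 7.2 and FcRn assays at pH 6. Kd, kon and koff came from global fitting to a 1:1 binding model.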

[2] = target: T4, human FcRIIIA-F158 protein (MednaBio, E1036) (human, UniProt P08637 17-208); experiment: BLI
T4 construct: Bought; also called FcγRIIIA(F)
Procedure, shortened: as §1

[3] = target: T5, human FcRIIIB protein (MednaBio, E1037) (human, UniProt O75015 17-200); experiment: BLI
T5 construct: Bought; also called FcγRIIIB; FcgRIIIB
Procedure, shortened: as §1

[4] = target: T6, human FcRn protein (MednaBio, E1032) (human, UniProt P55899 24-297; P61769 21-119); experiment: BLI
T6 construct: Bought; assays at pH 6
Procedure, shortened: as §1

[5] = target: T2, human FcRIIB/C protein (MednaBio, E1034); experiment: BLI
Procedure, shortened: as §1

[6] = target: T7, human FcRIIIA-V158 protein (MednaBio, E1035) (human, UniProt P08637 17-208); experiment: BLI
T7 construct: Bought; also called FcγRIIIA(V); FcgRIIIA(V)
Procedure, shortened: as §1

[7] = target: T8, human FcRI protein (MednaBio, E1031) (human, UniProt P12314 16-288, limits assumed); experiment: BLI
T8 construct: Bought; loaded on anti-penta-HIS biosensors; also called FcγRI
Procedure, shortened: as §1

[8] = target: T3, human FcγRIIC expressed on CHO cells; experiment: FACS, CHO cells expressing FcγRIIC
Method: For FACS analysis of the IgG mutants' binding to different FcγRs, FcγR overexpressing CHO cells were harvested using trypsin-EDTA and were suspended in cold staining buffer (3% BSA in PBS). Test IgG mutants, which were diluted in staining buffer, were added into the cells. The mixture was incubated 4° C. for 2 hours, and then washed twice with cold staining buffer and re-suspended in PE-labeled anti-human IgG followed by incubation at 4° C. for 2 hours. The mixture was washed twice with staining buffer and re-suspended in 2% PFA in PBS for FACS.

[9] = target: T1, human FcRIIA protein (MednaBio, E1033); experiment: BLI; remark: listed apart in the source
Procedure, shortened: as §1

[10] = target: T6, human FcRn protein (MednaBio, E1032); experiment: BLI; remark: listed apart in the source
Procedure, shortened: as §1

[11] = target: T2, human FcRIIB/C protein (MednaBio, E1034); experiment: BLI; remark: listed apart in the source
Procedure, shortened: as §1

[12] = target: T8, human FcRI protein (MednaBio, E1031); experiment: BLI; remark: listed apart in the source
Procedure, shortened: as §1

[13] = target: T9, human FcγRI expressed on CHO cells (human, UniProt P12314 16-374); experiment: FACS, CHO cells expressing FcγRI
T9 construct: whole, on cells
Procedure, shortened: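 Trypsin-harvested CHO cells overexpressing each FcγR were incubated 2 h at 4 °C with IgG mutants in 3% BSA/PBS. Bound IgG was detected with PE-labeled anti-human IgG (2 h, 4 °C), then cells were fixed in 2% PFA and analysed by flow cytometry.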

T8 sequence (P12314 16-288 limits assumed): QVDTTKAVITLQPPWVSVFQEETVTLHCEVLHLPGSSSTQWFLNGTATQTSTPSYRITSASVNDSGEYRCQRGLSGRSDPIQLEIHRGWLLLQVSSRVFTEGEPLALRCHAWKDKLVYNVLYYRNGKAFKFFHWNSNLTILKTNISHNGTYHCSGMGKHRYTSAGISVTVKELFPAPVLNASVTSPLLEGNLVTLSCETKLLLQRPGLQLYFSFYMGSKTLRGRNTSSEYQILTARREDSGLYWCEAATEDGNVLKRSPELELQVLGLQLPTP
T6 sequence (P55899 24-297 limits assumed, form in doubt, chain 1 of 2): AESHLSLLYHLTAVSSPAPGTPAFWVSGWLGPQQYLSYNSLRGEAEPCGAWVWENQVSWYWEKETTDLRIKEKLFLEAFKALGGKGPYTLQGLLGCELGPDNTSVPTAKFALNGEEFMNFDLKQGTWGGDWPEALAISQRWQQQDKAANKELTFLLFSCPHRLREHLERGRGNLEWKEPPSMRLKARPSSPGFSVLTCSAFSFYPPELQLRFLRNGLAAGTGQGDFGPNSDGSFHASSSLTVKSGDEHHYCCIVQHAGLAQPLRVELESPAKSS
T6 sequence (P61769 21-119 limits assumed, form in doubt, chain 2 of 2): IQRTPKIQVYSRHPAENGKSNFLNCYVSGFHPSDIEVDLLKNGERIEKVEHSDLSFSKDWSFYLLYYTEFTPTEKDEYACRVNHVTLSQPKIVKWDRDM
T5 sequence (O75015 17-200 limits assumed): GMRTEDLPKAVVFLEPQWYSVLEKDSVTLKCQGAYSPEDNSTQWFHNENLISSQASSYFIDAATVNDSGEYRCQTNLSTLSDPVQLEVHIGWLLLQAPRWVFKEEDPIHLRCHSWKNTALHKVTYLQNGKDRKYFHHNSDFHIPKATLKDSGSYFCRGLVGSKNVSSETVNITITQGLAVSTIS
T9 sequence (P12314 16-374): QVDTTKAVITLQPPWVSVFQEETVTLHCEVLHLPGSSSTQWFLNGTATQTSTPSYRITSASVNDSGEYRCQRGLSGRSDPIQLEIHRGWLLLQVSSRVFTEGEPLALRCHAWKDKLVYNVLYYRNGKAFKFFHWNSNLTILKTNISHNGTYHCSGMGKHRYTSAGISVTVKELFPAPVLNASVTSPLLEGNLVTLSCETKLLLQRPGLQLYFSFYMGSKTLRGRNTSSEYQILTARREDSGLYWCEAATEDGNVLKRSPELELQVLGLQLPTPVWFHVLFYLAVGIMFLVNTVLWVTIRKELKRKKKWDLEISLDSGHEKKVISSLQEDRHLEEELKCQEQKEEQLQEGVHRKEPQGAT
T4 sequence (P08637 17-208 limits assumed): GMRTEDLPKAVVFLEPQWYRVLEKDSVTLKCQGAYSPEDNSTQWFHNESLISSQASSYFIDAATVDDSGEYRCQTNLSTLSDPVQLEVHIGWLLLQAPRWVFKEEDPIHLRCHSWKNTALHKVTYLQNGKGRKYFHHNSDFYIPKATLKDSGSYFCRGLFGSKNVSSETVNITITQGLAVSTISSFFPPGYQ
T7 sequence (P08637 17-208 F176V): as the sequence (P08637 17-208 limits assumed) above, with F160V counted along it

| Binder | binding result [8] | Kd [9] [nM] | koff [9] [s⁻¹] | kon [9] [M⁻¹ s⁻¹] | Kd [10] [nM] | koff [10] [s⁻¹] | kon [10] [M⁻¹ s⁻¹] | Kd [11] [nM] | koff [11] [s⁻¹] | kon [11] [M⁻¹ s⁻¹] | Kd [12] [nM] | koff [12] [s⁻¹] | kon [12] [M⁻¹ s⁻¹] | further results |
| --- | --- | --- | --- | --- | --- | --- | --- | --- | --- | --- | --- | --- | --- | --- |
| B1 | binds |  |  |  |  |  |  |  |  |  |  |  |  | Kd [1]: 81 nM; koff [1]: 0.019 s⁻¹; kon [1]: 240000 M⁻¹ s⁻¹; binding result [2]: no binding (tested: 300 nM); binding result [3]: no binding (tested: 300 nM); Kd [4]: 13.4 nM; koff [4]: 0.0103 s⁻¹; kon [4]: 770000 M⁻¹ s⁻¹; Kd [5]: 110 nM; koff [5]: 0.028 s⁻¹; kon [5]: 260000 M⁻¹ s⁻¹; binding result [6]: no binding (tested: 300 nM); Kd [7]: 120 nM; koff [7]: 0.086 s⁻¹; kon [7]: 710000 M⁻¹ s⁻¹ |
| B2 | binds | 1800 | 0.055 | 31000 | 20 | 0.012 | 580000 | 180 | 0.034 | 190000 | 56 | 0.027 | 490000 |  |
| B3 | binds | 600 | 0.024 | 40000 | 52 | 0.011 | 210000 | 280 | 0.019 | 68000 |  |  |  | binding result [13]: binds |
| B4 | binds | 260 | 0.027 | 100000 | 23 | 0.013 | 560000 | 78 | 0.013 | 170000 | 44 | 0.023 | 520000 |  |
